The values below come from patent US20260193326A1.

One may read the Kd as the concentration at which binding is half-saturated. Usually koff stands for the first-order rate constant of dissociation. Low readings indicate slow dissociation, high ones fast dissociation. For orientation: kon means the second-order rate constant of association. A low value points to slow association.

B1: A4-C1 (VHH)
chain: VQLQESGGGLVQPGGSLRLSCAASGSGFSINTMGWYRQAPGKQRELVATVTRDGSTNYADFVKGRFTISRDNAKNTVYLQMNSLRPEDTAVYYCHLDEVRESSWTTSNLWGQGTQVTVSSGGGGSGGGGSGGGGSVQLQESGGGLVQPGGSLRLSCAASGSGFSINTMGWYRQAPGKQRELVATVTRDGSTNYADFVKGRFTISRDNAKNTVYLQMNSLRPEDTAVYYCHLDEVRESSWTTSNLWGQGTQVTVSSGGGGSGGGGSGGGGSVQLQESGGGLVQPGGSLRLSCAASGSGFSINTMGWYRQAPGKQRELVATVTRDGSTNYADFVKGRFTISRDNAKNTVYLQMNSLRPEDTAVYYCHLDEVRESSWTTSNLWGQGTQVTVSS
B2: A4-B1 (VHH)
chain: VQLQESGGGLVQPGGSLRLSCAASGSIFSINLMGWYRQAPGKQRELVATITRGGNTNYAGSVKGRFTISRDNAKNTVYLQMNSLRPEDTAVYYCHVDEVRQSSWTTSNLWGQGTQVTVSSGGGGSGGGGSGGGGSVQLQESGGGLVQPGGSLRLSCAASGSIFSINLMGWYRQAPGKQRELVATITRGGNTNYAGSVKGRFTISRDNAKNTVYLQMNSLRPEDTAVYYCHVDEVRQSSWTTSNLWGQGTQVTVSS
B3: A4-C4 (bispecific antibody)
chain: VQLQESGGGLVQAGGSLRLSCAASGSRFSINTMGWYRQAPGKQREFVATVTRGGNTNYAESVKGRFTISRDNAKNTVYLQMNSLRPEDTAVYYCHVDEVRDSSWTTSNIWGQGTQVTVSSGGGGSGGGGSGGGGSVQLQESGGGLVQAGGSLRLSCAASGSRFSINTMGWYRQAPGKQREFVATVTRGGNTNYAESVKGRFTISRDNAKNTVYLQMNSLRPEDTAVYYCHVDEVRDSSWTTSNIWGQGTQVTVSSGGGGSGGGGSGGGGSVQLQESGGGLVQPGGSLRLSCAASGSNFRINTMGWYRQAPGKQRELVATVTRGGSTNYADSVKGRFTISRDNPKDTVYLQMNSLRPEDTAVYYCHVDEVRESSWTTSNLWGQGTQVTVSS
B4: A4-C3 (bispecific antibody)
chain: VQLQESGGGLVQPGGSLRLSCAASGSIFSINLMGWYRQAPGKQRELVATITRGGNTNYAGSVKGRFTISRDNAKNTVYLQMNSLRPEDTAVYYCHVDEVRQSSWTTSNLWGQGTQVTVSSGGGGSGGGGSGGGGSVQLQESGGGLVQPGGSLRLSCAASGSIFSINLMGWYRQAPGKQRELVATITRGGNTNYAGSVKGRFTISRDNAKNTVYLQMNSLRPEDTAVYYCHVDEVRQSSWTTSNLWGQGTQVTVSSGGGGSGGGGSGGGGSVQLQESGGGLVQPGGSLRLSCAASGSNFRINTMGWYRQAPGKQRELVATVTRGGSTNYADSVKGRFTISRDNPKDTVYLQMNSLRPEDTAVYYCHVDEVRESSWTTSNLWGQGTQVTVSS
B5: A4-C7 (bispecific antibody)
chain: VQLQESGGGLVQPGGSLRLSCAASGSNFSINTMGWYRQAPGKQRELVATVTRGGDTNYADSVKGRFTISRDNAKNTVYLQMNSLRPEDTAVYYCHVDEIRESSWTTSNLWGQGTQVTVSSGGGGSGGGGSGGGGSVQLQESGGGLVQPGGSLRLSCAASGSNFRINTMGWYRQAPGKQRELVAPVTRGGSTNYADSVKGRFTISRDNAKNTVYLQMNSLRPEDTAVYYCHVDEVRESSWTTSNLWGQGTQVTVSSGGGGSGGGGSGGGGSVQLQESGGGLVQPGGSLRLSCAASGSSFTINTMGWYRQAPGKQRELVAAVTRGGSTNYAGSVKGRFTISRDNAKNTIYLQMNSLRPEDTAVYYCHVDEIRQSSWTTSNLWGQGTQVTVSS
B6: A4-B2 (bispecific antibody)
chain: VQLQESGGGLVQAGGSLRLSCAASGSRFSINTMGWYRQAPGKQREFVATVTRGGNTNYAESVKGRFTISRDNAKNTVYLQMNSLRPEDTAVYYCHVDEVRDSSWTTSNIWGQGTQVTVSSGGGGSGGGGSGGGGSVQLQESGGGLVQAGGSLRLSCAASGSTFSINTMGWYRQAPGKQRELVATITRGGNTNYADSVKGRFTISRDNAKNTVYLQMNSLRPEDTAVYYCHVDEVRQSSWTTSNLWGQGTQVTVSS
B7: A4-C2 (VHH)
chain: VQLQESGGGLVQPGGSLRLSCAASGSAFSINTMGWYRQAPGKQRELVASVTPGGSTNYADSVKGRFTISRDNAKNTIYLQMNSLRPEDTAVYYCHLDEVRESSWTTSNLWGQGTQVTVSSGGGGSGGGGSGGGGSVQLQESGGGLVQPGGSLRLSCAASGSAFSINTMGWYRQAPGKQRELVASVTPGGSTNYADSVKGRFTISRDNAKNTIYLQMNSLRPEDTAVYYCHLDEVRESSWTTSNLWGQGTQVTVSSGGGGSGGGGSGGGGSVQLQESGGGLVQPGGSLRLSCAASGSAFSINTMGWYRQAPGKQRELVASVTPGGSTNYADSVKGRFTISRDNAKNTIYLQMNSLRPEDTAVYYCHLDEVRESSWTTSNLWGQGTQVTVSS
B8: A4-C5 (bispecific antibody)
chain: VQLQESGGGLVQPGGSLRLSCAASGSNFRINTMGWYRQAPGKQRELVATVTRGGSTNYADSVKGRFTISRDNPKNTVYLQMNSLRPEDTAVYYCHVDEVRESSWTTSNLWGQGTQVTVSSGGGGSGGGGSGGGGSVQLQESGGGLVQPGGSLRLSCAASGSNFSINTMGWYRQAPGKQRELVATVTRGGDTNYADSVKGRFTISRDNAKNTVYLQMNSLRPEDTAVYYCHVDEIRESSWTTSNLWGQGTQVTVSSGGGGSGGGGSGGGGSVQLQESGGGLVQPGGSLRLSCAASGSNFRINTMGWYRQAPGKQRELVATVTRGGSTNYADSVKGRFTISRDNPKNTVYLQMNSLRPEDTAVYYCHVDEVRESSWTTSNLWGQGTQVTVSS
B9: A4-C8 (bispecific antibody)
chain: B8 chain with T49P, P73A, R299S, T319A, V320L, P343A
B10: A4-C6 (bispecific antibody)
chain: B8 chain with T49P, P73A, T184A, V185L, D190S, I234V, R299S, S325D, P343A, V369I
B11: A4-C9 (bispecific antibody)
chain: B8 chain with R29S, S55D, P73A, V99I, T184A, V185L, D190S, I234V, T319P, P343A

Residue numbers refer to the chain shown, from its start.

In one experiment the target is AAV5 (adeno-associated virus serotype 5). Briefly: SPR, AAV on CM5 chip. Background: SPR reads the build-up and loss of mass on a sensor chip optically.
In turn, B1 gave a dissociation constant (Kd) of 13.2 nM, a koff of 0.00138 s⁻¹ and a kon of 104000 M⁻¹ s⁻¹.
B2: the Kd came to 0.102 nM, the off-rate constant (koff) turned out to be 1.23e-05 s⁻¹ and the kon came to 121000 M⁻¹ s⁻¹.
For B3, the Kd worked out at 6.72 nM, the koff came out at 0.00121 s⁻¹ and the association rate constant (kon) turned out to be 180000 M⁻¹ s⁻¹.
B4 showed a Kd of 0.628 nM, a koff of 9e-05 s⁻¹ and a kon of 143000 M⁻¹ s⁻¹.
The molecule B5 showed a Kd of 0.0732 nM, an off-rate constant (koff) of 3.2e-05 s⁻¹ and an on-rate (kon) of 437000 M⁻¹ s⁻¹.
The like results for B6 were, in that order, 7.38 nM, 0.00117 s⁻¹ and 159000 M⁻¹ s⁻¹.
The molecule B7 showed a Kd of 0.691 nM, an off-rate constant (koff) of 0.000134 s⁻¹ and a kon of 194000 M⁻¹ s⁻¹.
On to B8, for which the Kd worked out at 7.86 nM, the koff came out at 0.0013 s⁻¹ and the kon is 165000 M⁻¹ s⁻¹.
B9 had a Kd of 0.69 nM, an off-rate constant (koff) of 0.00013 s⁻¹ and an association rate constant (kon) of 188000 M⁻¹ s⁻¹.
With B10, the Kd worked out at 0.785 nM, the off-rate constant (koff) worked out at 0.000139 s⁻¹ and the on-rate constant (kon) turned out to be 177000 M⁻¹ s⁻¹.
Take B11: the Kd is 0.777 nM, the koff stood at 5e-05 s⁻¹ and the association rate constant (kon) worked out at 64300 M⁻¹ s⁻¹.

The next experiment concerns the target AAV9 (adeno-associated virus serotype 9). Briefly: SPR, AAV on CM5 chip.
With B1, the equilibrium dissociation constant (Kd) turned out to be 1.03 nM, the dissociation rate constant (koff) came out at 1e-05 s⁻¹ and the on-rate constant (kon) amounted to 9690 M⁻¹ s⁻¹.
B2 showed a Kd of 0.715 nM, a koff of 0.00014 s⁻¹ and a kon of 196000 M⁻¹ s⁻¹.
As for B3, the Kd turned out to be 1.87 nM, the koff worked out at 0.00031 s⁻¹ and the kon is 165000 M⁻¹ s⁻¹.
The like results for B4 were, in that order, 0.491 nM, 9e-05 s⁻¹ and 183000 M⁻¹ s⁻¹.
With B5, the Kd came out at 0.127 nM, the koff came out at 1.75e-05 s⁻¹ and the association rate constant (kon) was determined as 137000 M⁻¹ s⁻¹.
In turn, B6 had a Kd of 8.35 nM, an off-rate (koff) of 0.0008 s⁻¹ and a kon of 95800 M⁻¹ s⁻¹.
In turn, B7 displayed a Kd of 0.486 nM, a koff of 0.000125 s⁻¹ and a kon of 257000 M⁻¹ s⁻¹.
Molecule B8 showed a dissociation constant Kd of 1.68 nM, a dissociation rate constant (koff) of 0.0002 s⁻¹ and a kon of 119000 M⁻¹ s⁻¹.
The like results for B9 were, in that order, 0.279 nM, 5e-05 s⁻¹ and 179000 M⁻¹ s⁻¹.
B10 had a dissociation constant Kd of 0.55 nM, a dissociation rate constant (koff) of 2.5e-05 s⁻¹ and a kon of 45400 M⁻¹ s⁻¹.
Regarding B11, the Kd was determined as 0.669 nM, the koff amounted to 0.00013 s⁻¹ and the kon was determined as 194000 M⁻¹ s⁻¹.

A further experiment deals with AAV8 (adeno-associated virus serotype 8). Briefly: SPR, AAV on CM5 chip.
For the molecule B1, the Kd stood at 9.2 nM, the off-rate constant (koff) amounted to 0.00164 s⁻¹ and the on-rate constant (kon) stood at 178000 M⁻¹ s⁻¹.
For the molecule B2, the dissociation constant Kd came out at 1.63 nM, the off-rate (koff) amounted to 0.000154 s⁻¹ and the kon was found to be 94500 M⁻¹ s⁻¹.
B3: the Kd was 2.36 nM, the koff is 0.00025 s⁻¹ and the kon was found to be 106000 M⁻¹ s⁻¹.
On to B4, for which the dissociation constant (Kd) stood at 0.534 nM, the off-rate (koff) is 4e-05 s⁻¹ and the kon was 74900 M⁻¹ s⁻¹.
As to B5, the equilibrium dissociation constant (Kd) came out at 3.7 nM, the off-rate (koff) was determined as 0.00047 s⁻¹ and the kon came to 127000 M⁻¹ s⁻¹.
The molecule B6 came in with an equilibrium dissociation constant (Kd) of 1.02 nM, an off-rate constant (koff) of 0.00014 s⁻¹ and a kon of 138000 M⁻¹ s⁻¹.
The like results for B7 were, in that order, 0.359 nM, 5e-05 s⁻¹ and 139000 M⁻¹ s⁻¹.
For the molecule B8, the Kd turned out to be 4.97 nM, the dissociation rate constant (koff) was found to be 0.00091 s⁻¹ and the kon came to 183000 M⁻¹ s⁻¹.
B9 displayed a Kd of 2.81 nM, an off-rate constant (koff) of 0.00037 s⁻¹ and an on-rate (kon) of 132000 M⁻¹ s⁻¹.
The like results for B10 were, in that order, 2.67 nM, 0.00044 s⁻¹ and 165000 M⁻¹ s⁻¹.
The like results for B11 were, in that order, 1.14 nM, 0.00013 s⁻¹ and 114000 M⁻¹ s⁻¹.
